Reference: patent US20200262914A1 (MIT, published 2020)

Columns and labels:
[1] = target: T1, human Mcl-1 (residues 172-327) (human, UniProt Q07820 172-327); assay: competition FP vs fluoresceinated Bim BH3, solution
T1 construct: range 172-327

[2] = target: T1, human Mcl-1 (residues 172-327); assay: yeast display, sparse titration, apparent KD;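 also: designs displayed on the yeast cell surface, binding of soluble target protein measured at four concentrations spanning nanomolar to micromolar, apparent KD estimated from this sparse titration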
[3] = target: T2, human Bfl-1 (residues 1-151) (human, UniProt Q16548 1-151); assay: competition FP vs fluoresceinated Bim BH3, solution
T2 construct: range 1-151
T2 sequence (looked up): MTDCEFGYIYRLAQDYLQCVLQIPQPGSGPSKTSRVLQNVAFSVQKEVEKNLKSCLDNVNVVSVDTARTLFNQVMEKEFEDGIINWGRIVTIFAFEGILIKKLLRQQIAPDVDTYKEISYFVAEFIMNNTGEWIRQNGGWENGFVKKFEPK

[4] = target: T2, human Bfl-1 (residues 1-151); assay: yeast display, sparse titration, apparent KD;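 also: designs displayed on the yeast cell surface, binding of soluble target protein measured at four concentrations spanning nanomolar to micromolar, apparent KD estimated from this sparse titration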
[5] = target: T3, human Bcl-xL (residues 1-209) (human, UniProt Q07817 1-209); assay: yeast surface display
T3 construct: range 1-209
T3 sequence (Q07817 1-209 limits assumed): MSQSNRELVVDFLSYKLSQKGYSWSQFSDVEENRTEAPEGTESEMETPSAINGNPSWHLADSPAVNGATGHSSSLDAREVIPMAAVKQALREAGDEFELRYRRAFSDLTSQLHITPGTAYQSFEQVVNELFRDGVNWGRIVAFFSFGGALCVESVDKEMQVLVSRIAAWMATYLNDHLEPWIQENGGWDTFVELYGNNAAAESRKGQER

[6] = target: T1, human Mcl-1 (residues 172-327); assay: yeast surface display
[7] = target: T2, human Bfl-1 (residues 1-151); assay: yeast surface display
[8] = target: T3, human Bcl-xL (residues 1-209); assay: competition FP vs fluoresceinated Bim BH3, solution
[9] = target: T3, human Bcl-xL (residues 1-209); assay: yeast display, sparse titration, apparent KD;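 also: designs displayed on the yeast cell surface, binding of soluble target protein measured at four concentrations spanning nanomolar to micromolar, apparent KD estimated from this sparse titration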

T1 sequence (Q07820 172-327 limits assumed): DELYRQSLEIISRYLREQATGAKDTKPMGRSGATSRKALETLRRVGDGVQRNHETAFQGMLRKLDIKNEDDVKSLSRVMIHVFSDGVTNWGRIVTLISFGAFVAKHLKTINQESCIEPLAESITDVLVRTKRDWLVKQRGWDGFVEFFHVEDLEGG

B1: srt.M9 (peptide)
peptide: Ac-RSQYEVIQELIRIGDIVLAYFER-NH2
notes: synthetic solution peptide; also called vM9
B1 was tested, and the Ki [1] was 0.6 nM.

B2: srt.M1 (peptide)
peptide: Ac-RSELEVVQELVRIGDIVVAYFER-NH2
notes: synthetic solution peptide; also called vM1
With B2 the Ki [1] was 2.4 nM.

For GRSLYEYIQELIRIGDEVTAYF [M3], the Kd [2] was < 100 nM.

GRSLLEYIQELIRIGDEVIAYF [M4] was tested, and the Kd [2] was < 100 nM.

With Ac-QRVVHIAAGLRRTGDQLEAYGER-NH2 [srt.F4] the Ki [3] was > 4000 nM.

GQRVVQIAAGLRRTGDQLEKYG [F6] was tested, and the Kd [4] was < 100 nM.

For GQRVVHIAQGLRRTGDQLEAQG [F5], the Kd [4] was < 100 nM.

In the case of GQRVVQIAQGLRRTGDQLEKQG [F7], the Kd [4] is reported as < 100 nM.

In the case of GRRVVHIAAGLRRTGDQLEAQG [F3], the Kd [4] is reported as < 100 nM.

In the case of GQRVVQIAQGLRRAGDQLEKYG [F11], the Kd [4] is reported as < 100 nM.

In the case of GRRVVQIAQGLRRAGDQLEKQG [F12], the Kd [4] is reported as < 100 nM.

GRRVVQIAAGLRRTGDQLEKQG [F8] was tested, and the Kd [4] was < 100 nM.

GRRVDEIAQILRRIGDNIEEYI [MF03]: binds [5]; binds [6]; binds [7].

GRRVDEIAQILRRIGDNINEYI [MF04]: binds [5]; binds [6]; binds [7].

GRRVDEIAQILRRIGDQIEEYI [MF07]: binds [5]; binds [6]; binds [7].

Ac-QWAREIGAQLRRMADDLNAQYER-NH2 [Puma] gave a Ki [1] of 1.69 nM and a Ki [3] of 4.8 nM.

Ac-QRIIWIAAELRRAADELDKQIER-NH2 (synthetic solution peptide) [srt.XF02] gave a Ki [8] of 37 nM and a Ki [3] of 10 nM.

With Ac-QRIIWIAAELRRAADQLDAQIER-NH2 (synthetic solution peptide) [srt.XF03] the Ki [8] was 120 nM and the Ki [3] was 22 nM.

For GRRVRHIAQGLRRAGDQLDAYG [F1], the Kd [4] was < 100 nM.

For GQRVRHIAQGLRRTGDQLDAYG [F2], the Kd [4] was < 100 nM.

With GRRVRHIAQGLRRAGDQLDKYG [F9] the Kd [4] was < 100 nM.

GRSEYEYIQELIRIGDIVDAYF [M11] was tested, and the Kd [2] was < 100 nM.

GRGQYEYIQELIRIGDIVDAYF [M12] was tested, and the Kd [2] was < 100 nM.

With GRSEYEYIQELVRIGDEVDAYF [M2] the Kd [2] was < 100 nM.

For GRSEYEYIQELIRIGDNVDAYF [M10], the Kd [2] was < 100 nM.

In the case of GRSELEYIQELVRIGDEVDAYF [M5], the Kd [2] is reported as < 100 nM.

In the case of GRGQLEYIQELIRIGDIVDAYF [M6], the Kd [2] is reported as < 100 nM.

In the case of GRSELEYIQELIRIGDIVDAYF [M8], the Kd [2] is reported as < 100 nM.

GRSELEYIQELIRIGDNVDAYF [M7] was tested, and the Kd [2] was < 100 nM.

In the case of GQTLIWYGAQLRRYADEFAKQR [X2], the Kd [9] is reported as < 100 nM.

GQSMIWYGASLRRAADEFAKQR [X8] was tested, and the Kd [9] was < 100 nM.

In the case of GQTLIWYGASLRRYADEFAKQR [X1], the Kd [9] is reported as < 100 nM.

With GQRLIWYGAQLRRYADDFAKQR [X10] the Kd [9] was < 100 nM.

For GQTAIWYGASLRRAADEFAKQR [X5], the Kd [9] was < 100 nM.

GQTLIWYGAQLRRVADDFAKQR [X4] was tested, and the Kd [9] was < 100 nM.

For GQTLIWYGAQLRRYADDFAKQR [X9], the Kd [9] was < 100 nM.

For GQGLIWYGAQLRRVADDFAKQR [X12], the Kd [9] was < 100 nM.

GRWIDQIAQFLRRIGDHIEKYI (also called MF2) [MF02]: binds [5]; binds [6]; binds [7].

In the case of GRSELEVVQELVRIGDIVVAYF [M1], the Kd [2] is reported as < 100 nM.

In the case of GRSQYEVIQELIRIGDIVLAYF [M9], the Kd [2] is reported as < 100 nM.

Ac-RRVVQIAAGLRRAGDQLEKYGER-NH2 [srt.F10] showed a Ki [3] of 300 nM.

GRRVDEIAQILRRIGDNVTTYI (also called MF6) [MF06]: binds [6]; binds [7].

GRRIDEIAQILRRIGDHIEKYI [MF01]: binds [5]; binds [6]; binds [7].

GRRIDEIAQILRRIGDHVEKYI [MF05]: binds [5]; binds [6]; binds [7].

For GQSLIWFGASLRRGADEFAAQR [X6], the Kd [9] was < 100 nM.

With GQTLIWFGASLRRGADEFAAQR [X11] the Kd [9] was < 100 nM.

In the case of GQPLIWFGASLRRGADEFAKQR [X3], the Kd [9] is reported as < 100 nM.

For GQPLIWFGAQLRRGADEFAAQR [X7], the Kd [9] was < 100 nM.

GRSQIWYDQELVRSGDVNAAYR [MX2]: no binding [5]; no binding [6].

GRSQIWYVQELVRGGDVNHAYR [MX1]: no binding [5]; no binding [6].

GRSQIWYDQELVRYGDVNAAYR [MX5]: no binding [5]; no binding [6].

GRSQIWYVQELVRSGDVNHAYR [MX6]: no binding [5]; no binding [6].

GRSQIWYDQELVRSGDENAAYR [MX3]: no binding [5]; no binding [6].

GRSEIWYDQELVRSGDVNAAYR [MX7]: no binding [5]; no binding [6].

GRSQIWYDQELVRYADVNAAYR [MX4]: no binding [5]; no binding [6].
